From patent US20180030151A1 (MOGAM INSTITUTE FOR BIOMEDICAL RESEARCH, published 2018)

Target: T1, recombinant human TFPI (tissue factor pathway inhibitor) (human, UniProt P10646 29-304)
T1 construct: Biotin-conjugated in the yeast FACS; also called hTFPI; TFPI antigen
Test: yeast-display scFv, FACS with biotinylated TFPI
Protocol: The finally amplified single colonies were collected from the yeast display library, and then cultured in SD medium at 30° C. at 200 rpm for 12 hours. Then, the medium was replaced with SG medium, and the cells were cultured at 25° C. at 200 rpm for 12 hours or more, thereby expressing the antibody on the yeast surface. Next, the yeast cells recovered by centrifugation were washed with PBSF (1% BSA containing PBS) buffer, resuspended in 50 μl of PBSF buffer, and then incubated with a biotin-conjugated recombinant human TFPI protein and anti-c-myc mouse antibody (CAT. No. M4439, Sigma) at room temperature for 30 minutes. The incubated yeast cells were washed with PBSF, resuspended in 50 μl of PBSF buffer, and then incubated with FITC-conjugated anti-mouse antibody (CAT. No. F0257, Sigma) and PE-conjugated streptavidin on ice under a light-shielded condition for 15 minutes. Next, the cells were washed with PBSF buffer, resuspended in 500 μl of PBSF buffer, and then clones showing high values in the FITC and PE wavelength ranges were selected by FACS, thereby obtaining individual clones.

Binder	binding result
clone 1232 (antibody, V domains shown, scFv on yeast at selection; human IgG4/kappa IgG as purified) VH: EVQLVESGGGLVKPGGSLRLSCAASGFTFSSYAMNWVRQAPGKGLEWVSTITTGGSYTYYADSVDGRFTISRDNAKNSLYLQMNSLRAEDTAVYYCARQDGHFLMDYWGQGTLVTVSS VL: DVVMTQTPLSLPVTLGQPASISCKSSQSLLDVDGKTYLNWLQQRPGQSPKRLIYLVSKLDSGVPDRFTGSGSGTDFTLKISRVEAEDVGVYYCWQGTHFPFTFGQGTKVEIKR	binds
clone 1243 (antibody, V domains shown, scFv on yeast at selection; human IgG4/kappa IgG as purified) VH: EVQLVESGGGLVKPGGSLRLSCAASGFTFSSYAMNWVRQAPGKGLEWVSTITTGGSHTYYADSVHGRFTISRDNAKNSLYLQMNSLRAEDTAVYYCARQDGHFLMDYWGQGTLVTVSS VL: DVVMTQTPLSLPVTLGQPASISCKSSQSLLDIDGKTYLNWLQQRPGQSPKRLIYLVSKLDSGVPDRFTGSGSGTDFTLKISRVEAEDVGVYYCWQGTHFPFTFGQGTKVEIKR	binds
clone 4034 (antibody, V domains shown, scFv on yeast at selection; human IgG4/kappa IgG as purified) VH: EVQLVESGGGLVKPGGSLRLSCAASGFTFSSYAMNWVRQAPGKGLEWVSTITTGGSHTYYADSVEGRFTISRDNAKNSLYLQMNSLRAEDTAVYYCARQDGYFLMDYWGQGTLVTVSS VL: DVVMTQTPLSLPVTLGQPASISCKSSQSLLDIDGKTYLNWLQQRPGQSPKRLIYLVSKLDSGVPDRFTGSGSGTDFTLKISRVEAEDVGVYYCWQGTHFPFTFGQGTKVEIKR	binds
clone 1208 (antibody, V domains shown, scFv on yeast at selection; human IgG4/kappa IgG as purified) VH: EVQLVESGGGLVKPGGSLRLSCAASGFTFSSYAMNWVRQAPGKGLEWVSTITTGGSHTYYADSVEGRFTISRDNAKNSLYLQMNSLRAEDTAVYYCARQDGHFLMDYWGQGTLVTVSS VL: DVVMTQTPLSLPVTLGQPASISCKSSQSLLDVDGKTYLNWLQQRPGQSPKRLIYLVSKLDSGVPDRFTGSGSGTDFTLKISRVEAEDVGVYYCWQGTYLPFTFGQGTKVEIKR	binds

Results, then the binder that gave them:

binding result	Binder
binds	clone 1223 (antibody, V domains shown, scFv on yeast at selection; human IgG4/kappa IgG as purified) VH: EVQLVESGGGLVKPGGSLRLSCAASGFTFSSYAMNWVRQAPGKGLEWVSTITTGGSYTYYADSVEGRFTISRDNAKNSLYLQMNSLRAEDTAVYYCARQDGHFLMDYWGQGTLVTVSS VL: DVVMTQTPLSLPVTLGQPASISCKSSQSLLDIDGKTYLNWLQQRPGQSPKRLIYLVSKLDSGVPDRFTGSGSGTDFTLKISRVEAEDVGVYYCWQGTHFPFTFGQGTKVEIKR
binds	clone 1248 (antibody, V domains shown, scFv on yeast at selection; human IgG4/kappa IgG as purified) VH: EVQLVESGGGLVKPGGSLRLSCAASGFTFSSYAMNWVRQAPGKGLEWVSTITTGGSHTYYADSVDGRFTISRDNAKNSLYLQMNSLRAEDTAVYYCARQDGHFLMDYWGQGTLVTVSS VL: DVVMTQTPLSLPVTLGQPASISCKSSQSLLDIDGKTYLNWLQQRPGQSPKRLIYLVSKLDSGVPDRFTGSGSGTDFTLKISRVEAEDVGVYYCWQGTHFPFTFGQGTKVEIKR
